The target in assay [1] is T1, human eosinophil eotaxin receptor CC CKR3, stably expressed in AML14.3D10 cells (human, UniProt P51677 1-355).
T1 construct: Full-length cDNA in pBJ/NEO transfected into the AML14.3D10 eosinophilic line; also called AML14/CCCKR3.16
T1 sequence: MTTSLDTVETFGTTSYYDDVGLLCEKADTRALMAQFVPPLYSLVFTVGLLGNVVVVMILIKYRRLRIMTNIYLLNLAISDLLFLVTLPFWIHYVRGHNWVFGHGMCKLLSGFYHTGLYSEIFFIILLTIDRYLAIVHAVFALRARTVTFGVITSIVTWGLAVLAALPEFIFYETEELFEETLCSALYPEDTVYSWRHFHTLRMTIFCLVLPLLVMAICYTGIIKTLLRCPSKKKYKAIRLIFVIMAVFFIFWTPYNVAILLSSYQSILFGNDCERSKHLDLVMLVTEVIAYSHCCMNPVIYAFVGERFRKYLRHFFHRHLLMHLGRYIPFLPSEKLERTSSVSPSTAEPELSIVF
Briefly: competition against 125I-MCP-3, intact AML14.3D10 cells expressing CC CKR3. The method, then: Competition studies were also carried out against ¹²⁵I-MCP-3. […] Thus despite some small quantitative differences the overall ligand selectivity of the receptor is the same whether measured by competition against eotaxin or MCP-3, and the order of potency, eotaxin>MCP-3=RANTES>>MCP-1, is identical.
(§1) Competition binding experiments were carried out against the indicated iodinated ligand as follows and as described herein. Equilibrium binding of β-chemokines to AML14.3D10 cells expressing CC CKR3 and to primary eosinophils was examined with increasing concentrations of unlabelled human eotaxin, murine eotaxin, RANTES, MCP-3, or MCP-1 to compete against fixed concentrations of either ¹²⁵I-human eotaxin, or ¹²⁵I-MCP-3. Also the competition with 100 nM concentrations of MIP-1α, and MIP-1β was examined. The experiments were carried out either with AML14.3D10 cells expressing CC CKR3, or with eosinophils. All values are the averages of triplicate determinations. Typically, 4000-6000 cpm of iodinated ligand was bound in the absence of compeititor with S/N ratios exceeding 15. Human and murine eotaxin are the human and murine chemokines, respectively. “N.B.” means that no competition was observed. All results are the averages of the number of experiments shown in parenthesis.

In assay [2] the target is T1, human eosinophil eotaxin receptor CC …. Kind of assay: competition against 125I-human eotaxin, intact AML14.3D10 cells expressing CC CKR3. The method, then: (§2) Results with murine eotaxin were essentially identical. […] Clearly, CC CKR3 is a high affinity receptor for eotaxin.
as §1

Assay [3] has as its target T2, endogenous eosinophil eotaxin receptor (CC CKR3) on primary human eosinophils (human, UniProt P51677 1-355).
T2 construct: The target as printed is 'eosinophils' (primary cells from allergic and asthmatic donors); It also says eosinophils express a much lower level of CC CKR1; also called primary eosinophils
T2 sequence: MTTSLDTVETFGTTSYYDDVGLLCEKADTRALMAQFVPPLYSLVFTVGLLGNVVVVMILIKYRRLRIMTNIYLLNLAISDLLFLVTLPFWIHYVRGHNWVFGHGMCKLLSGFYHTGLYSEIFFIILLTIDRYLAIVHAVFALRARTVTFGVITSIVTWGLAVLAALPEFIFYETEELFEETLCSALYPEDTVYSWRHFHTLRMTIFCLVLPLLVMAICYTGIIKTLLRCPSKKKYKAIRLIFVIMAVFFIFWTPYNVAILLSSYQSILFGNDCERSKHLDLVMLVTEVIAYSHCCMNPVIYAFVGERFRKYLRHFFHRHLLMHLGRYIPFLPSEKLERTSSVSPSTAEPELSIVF
Briefly: competition against 125I-human eotaxin, primary eosinophils. The method, then:
(§3) To provide additional pharmacological evidence, binding studies were conducted on primary eosinophils. […] The number of binding sites varied by less than 2-fold for the 3 donors used in the studies. […] Similarly, the Kd's obtained by competition against ¹²⁵I-MCP-3 on eosinophils are effectively indistinguishable to those measured against cloned CC CKR3 (see Table 1). All of the observations and measurements, taken together with the Western blot showing expression of CC CKR3, verify that CC CKR3 is the eosinophil eotaxin receptor, and appears to be largely responsible for mediating the effects of most β-chemokines on eosinophils.
as §1

Assay [4] has as its target T2, endogenous eosinophil eotaxin receptor …. Briefly: competition against 125I-MCP-3, primary eosinophils. The protocol: as §3, §1
Assay [5] concerns the target T1, human eosinophil eotaxin receptor CC …. Kind of assay: competition against 125I-human eotaxin on AML14.3D10 cells expressing CC CKR3. The protocol: as §2, §1
Assay [6] has as its target T2, endogenous eosinophil eotaxin receptor …. Briefly: competition against 125I-human eotaxin on primary eosinophils. The method, then:
as §3
Competition binding experiments were carried out against the indicated iodinated ligand as follows and as described herein. Equilibrium binding of β-chemokines to AML14.3D10 cells expressing CC CKR3 and to primary eosinophils was examined with increasing concentrations of unlabelled human eotaxin, murine eotaxin, RANTES, MCP-3, or MCP-1 to compete against fixed concentrations of either ¹²⁵I-human eotaxin, or ¹²⁵I-MCP-3. Also the competition with 100 nM concentrations of MIP-1α, and MIP-1β was examined. The experiments were carried out either with AML14.3D10 cells expressing CC CKR3, or with eosinophils. All values are the averages of triplicate determinations. […]

Assay [7] deals with T1, human eosinophil eotaxin receptor CC …. Kind of assay: cell-based or functional assay.

B1: RANTES (ligand, UniProt P13501 24-91, looked up)
chain: SPYSSDTTPCCFAYIARPLPRAHIKEYFYTSGKCSNPAVVFVTRKNRQVCANPEKKWVREYINSLEMS
On to B1, for which the Kd (in general, the free concentration of one partner at which half of the binding sites on the other are occupied at equilibrium, for simple one-to-one binding) worked out at 0.5 nM in assay [1], 3.1 nM in assay [2], 2.6 nM in assay [3] and 0.9 nM in assay [4].

B2: murine eotaxin (ligand, UniProt P48298 24-97, looked up)
chain: HPGSIPTSCCFIMTSKKIPNTLLKSYKRITNNRCTLKAIVFKTRLGKEICADPKKKWVQDATKHLDQKLQTPKP
In the case of B2, the Kd in assay [1] stood at 0.3 nM; in assay [2] it was 0.1 nM; in assay [3], 0.1 nM; in assay [4] it was 0.2 nM.

B3: MIP-1α (ligand, UniProt P10147 24-92, looked up)
chain: SLAADTPTACCFSYTSRQIPQNFIADYFETSSQCSKPGVIFLTKRSRQVCADPSEEWVQKYVSDLELSA
notes: also called macrophage inflammatory protein 1α
B3: the binding result in assay [5] and in assay [6] was “no binding (tested: 100 nM)” in each case. Besides, the “Ca^2+-flux (intracellular Ca^2+ levels)” value in assay [7] is above 1 µM.

B4: MCP-3 (ligand)
chain: not shown
With B4, the Kd came out at 0.7 nM in assay [1], 2.7 nM in assay [2], 3 nM in assay [3] and 1.1 nM in assay [4].

B5: MIP-1β (ligand, UniProt P13236 24-92, looked up)
chain: APMGSDPPTACCFSYTARKLPRNFVVDYYETSSLCSQPAVVFQTKRSKQVCADPSESWVQEYVYDLELN
notes: also called macrophage inflammatory protein 1β
For the molecule B5, the binding result in assay [5] and in assay [6] was “no binding (tested: 100 nM)” each time. Besides, the “Ca^2+-flux (intracellular Ca^2+ levels)” value in assay [7] was above 1 µM.

B6: human eotaxin (ligand)
chain: not shown
As for B6, the dissociation constant (Kd) in assay [1] came to 0.2 nM; in assay [2], 0.1 nM; in assay [3], 0.1 nM; in assay [4], 0.2 nM.

The record behind these values is patent publication US20020192214A1 (published 2002).
